For seven molecules, K d(app): hTRX concentration (0-10 uM) giving half-maximal activation of PAD4 (citrullination of BAEE) results are on record in PMC6396667.

The assay has as its target human protein arginine deiminase 4 (PAD4) (human) (UniProt Q9UM07).

Numbering of substitutions follows the chain as printed. Names may count otherwise.

Chain of UniProt Q9UM07 (Q9UM07 whole entry): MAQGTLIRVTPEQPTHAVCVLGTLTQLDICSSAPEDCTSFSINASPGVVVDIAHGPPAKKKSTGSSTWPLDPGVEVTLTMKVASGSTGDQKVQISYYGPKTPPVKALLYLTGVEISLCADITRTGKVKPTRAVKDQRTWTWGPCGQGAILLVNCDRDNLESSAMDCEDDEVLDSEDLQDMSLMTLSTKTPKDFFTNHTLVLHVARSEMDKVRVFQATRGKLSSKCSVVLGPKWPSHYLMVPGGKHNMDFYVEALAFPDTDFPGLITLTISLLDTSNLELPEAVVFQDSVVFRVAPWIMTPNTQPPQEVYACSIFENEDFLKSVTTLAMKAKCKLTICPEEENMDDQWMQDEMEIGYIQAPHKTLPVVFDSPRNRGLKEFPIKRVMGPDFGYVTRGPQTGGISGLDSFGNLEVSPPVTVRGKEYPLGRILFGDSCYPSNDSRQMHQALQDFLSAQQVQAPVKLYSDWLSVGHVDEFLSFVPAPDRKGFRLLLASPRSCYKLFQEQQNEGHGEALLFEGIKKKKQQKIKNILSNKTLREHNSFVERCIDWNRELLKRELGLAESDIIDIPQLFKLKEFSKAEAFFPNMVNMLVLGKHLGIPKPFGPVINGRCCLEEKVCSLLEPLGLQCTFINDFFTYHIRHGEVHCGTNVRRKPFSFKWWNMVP

B1: C35S-hTRX (enzyme)
chain: MVKQIESKTAFQEALDAAGDKLVVVDFSATWCGPSKMIKPFFHSLSEKYSNVIFLEVDVDDCQDVASECEVKCMPTFQFFKKGQKVGEFSGANKEKLEATINELV
B1 showed a K d(app): hTRX concentration (0-10 uM) giving half-maximal activation of PAD4 (citrullination of BAEE) of 1.17 µM.

B2: IAA-treated hTRX (thiol-free variant) (enzyme)
chain: B1 chain with S35C
modifications: all cysteine residues chemically modified with iodoacetamide
With B2, the K d(app): hTRX concentration (0-10 uM) giving half-maximal activation of PAD4 (citrullination of BAEE) was determined as 0.62 µM.

B3: C32/35S-hTRX (enzyme)
chain: B1 chain with C32S
For the molecule B3, the K d(app): hTRX concentration (0-10 uM) giving half-maximal activation of PAD4 (citrullination of BAEE) amounted to 0.44 µM.

B4: C69S-hTRX (enzyme)
chain: B1 chain with S35C, C69S
The molecule B4 gave a K d(app): hTRX concentration (0-10 uM) giving half-maximal activation of PAD4 (citrullination of BAEE) of 1.38 µM.

B5: C62S-hTRX (enzyme)
chain: B1 chain with S35C, C62S
Consider B5, for which the K d(app): hTRX concentration (0-10 uM) giving half-maximal activation of PAD4 (citrullination of BAEE) is 1.14 µM.

B6: C62/69S-hTRX (enzyme)
chain: B1 chain with S35C, C62S, C69S
For the molecule B6, the K d(app): hTRX concentration (0-10 uM) giving half-maximal activation of PAD4 (citrullination of BAEE) was found to be 0.61 µM.

B7: C73S-hTRX (enzyme)
chain: B1 chain with S35C, C73S
B7 returned a K d(app): hTRX concentration (0-10 uM) giving half-maximal activation of PAD4 (citrullination of BAEE) of 0.78 µM.
